Assay results: patent EP4782541A1 (Nanjing Probio Biotech Co., Ltd., dated 2026)

Experiments:
[1] = target: T1, human CD3 (on Jurkat cells) (human, UniProt P07766 23-207; P09693 23-182; P04234 22-171); test: flow cytometry on Jurkat cells expressing human CD3
T1 construct: whole, on cells

human ROR1 protein [2] = target: T2, human ROR1 protein (human, UniProt Q01973 30-403, limits assumed); test: SPR (Biacore 8K); human ROR1 amine-coupled at 0.50 ug/mL as ligand, antibody as analyte
T2 construct: Recombinant antigen of the SPR assay; also called ROR1 (SPR ligand)
T2 sequence (Q01973 30-403 limits assumed): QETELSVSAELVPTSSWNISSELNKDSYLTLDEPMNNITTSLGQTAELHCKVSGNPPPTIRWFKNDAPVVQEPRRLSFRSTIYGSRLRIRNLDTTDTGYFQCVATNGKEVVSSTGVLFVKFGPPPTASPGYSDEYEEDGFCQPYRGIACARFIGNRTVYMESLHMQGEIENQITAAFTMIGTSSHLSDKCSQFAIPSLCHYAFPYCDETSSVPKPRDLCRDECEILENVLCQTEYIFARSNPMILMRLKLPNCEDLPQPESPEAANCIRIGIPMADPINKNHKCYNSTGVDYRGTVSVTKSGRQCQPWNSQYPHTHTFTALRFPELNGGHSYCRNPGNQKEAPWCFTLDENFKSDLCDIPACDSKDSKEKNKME

human ROR1 protein [3] = target: T2, human ROR1 protein; test: SPR (Biacore 8K); human ROR1 amine-coupled at 62.50 ug/mL as ligand, antibody as analyte
[4] = target: T3, human ROR1 (on CHO-K1/ROR1 cells and ROR1 tumour cell lines) (human, UniProt Q01973 30-937); test: flow cytometry on Jeko-1 cells (human ROR1 tumour cell line)
T3 construct: whole, on cells; also called receptor tyrosine kinase-like orphan receptor 1
T3 sequence (Q01973 30-937): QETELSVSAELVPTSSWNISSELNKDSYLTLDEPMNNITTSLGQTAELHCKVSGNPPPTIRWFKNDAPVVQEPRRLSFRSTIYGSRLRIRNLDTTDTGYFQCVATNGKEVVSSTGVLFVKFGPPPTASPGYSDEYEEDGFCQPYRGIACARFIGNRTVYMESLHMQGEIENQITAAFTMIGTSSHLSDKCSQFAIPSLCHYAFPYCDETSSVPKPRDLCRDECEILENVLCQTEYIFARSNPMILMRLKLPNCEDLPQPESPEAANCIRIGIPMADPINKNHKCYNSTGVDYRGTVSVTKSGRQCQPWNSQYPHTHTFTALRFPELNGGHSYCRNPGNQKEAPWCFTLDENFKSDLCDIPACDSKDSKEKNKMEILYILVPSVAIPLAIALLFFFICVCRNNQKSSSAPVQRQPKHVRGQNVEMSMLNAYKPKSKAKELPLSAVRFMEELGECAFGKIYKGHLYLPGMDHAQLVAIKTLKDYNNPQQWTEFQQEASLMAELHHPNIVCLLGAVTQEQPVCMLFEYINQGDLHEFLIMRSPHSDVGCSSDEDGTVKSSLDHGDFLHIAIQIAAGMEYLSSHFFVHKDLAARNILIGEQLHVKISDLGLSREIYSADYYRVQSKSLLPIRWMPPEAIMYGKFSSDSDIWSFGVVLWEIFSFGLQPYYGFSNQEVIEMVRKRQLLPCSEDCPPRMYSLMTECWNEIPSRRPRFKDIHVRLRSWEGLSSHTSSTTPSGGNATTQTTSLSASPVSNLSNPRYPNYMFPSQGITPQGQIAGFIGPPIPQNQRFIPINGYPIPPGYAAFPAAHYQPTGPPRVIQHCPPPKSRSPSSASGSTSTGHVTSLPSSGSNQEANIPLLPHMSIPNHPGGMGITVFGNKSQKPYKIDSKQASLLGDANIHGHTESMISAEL

[5] = target: T3, human ROR1 (on CHO-K1/ROR1 cells and …); test: flow cytometry on A375 cells (human ROR1 tumour cell line)
[6] = target: T3, human ROR1 (on CHO-K1/ROR1 cells and …); test: flow cytometry on A549 cells (human ROR1 tumour cell line)
human ROR1 protein [7] = target: T2, human ROR1 protein; test: SPR (Biacore 8K); human ROR1 amine-coupled at 12.50 ug/mL as ligand, antibody as analyte
[8] = target: T3, human ROR1 (on CHO-K1/ROR1 cells and …); test: flow cytometry on PSN-1 cells (human ROR1 tumour cell line)
[9] = target: T3, human ROR1 (on CHO-K1/ROR1 cells and …); test: flow cytometry on CHO-K1/ROR1 cells overexpressing human ROR1
[10] = target: T3, human ROR1 (on CHO-K1/ROR1 cells and …); test: flow cytometry on MDA-MB-231 cells (human ROR1 tumour cell line)
human ROR1 protein [11] = target: T2, human ROR1 protein; test: SPR (Biacore 8K); human ROR1 amine-coupled at 2.50 ug/mL as ligand, antibody as analyte
[12] = target: T3, human ROR1 (on CHO-K1/ROR1 cells and …); test: flow cytometry on PA-1 cells (human ROR1 tumour cell line)
human ROR1 protein [13] = target: T2, human ROR1 protein; test: SPR (Biacore 8K); human ROR1 amine-coupled at 0.10 ug/mL as ligand, antibody as analyte
[14] = target: T3, human ROR1 (on CHO-K1/ROR1 cells and …); test: cell-based or functional assay
human ROR1 protein [15] = target: T2, human ROR1 protein; test: SPR (Biacore 8K); human ROR1 amine-coupled at 0.05 ug/mL as ligand, antibody as analyte

T1 sequence (P07766 23-207, chain 1 of 3): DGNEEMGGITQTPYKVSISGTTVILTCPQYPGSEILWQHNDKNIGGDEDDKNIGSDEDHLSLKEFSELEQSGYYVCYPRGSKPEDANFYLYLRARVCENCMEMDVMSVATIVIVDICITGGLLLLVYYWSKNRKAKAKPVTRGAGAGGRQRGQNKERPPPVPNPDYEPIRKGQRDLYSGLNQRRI
T1 sequence (P09693 23-182, chain 2 of 3): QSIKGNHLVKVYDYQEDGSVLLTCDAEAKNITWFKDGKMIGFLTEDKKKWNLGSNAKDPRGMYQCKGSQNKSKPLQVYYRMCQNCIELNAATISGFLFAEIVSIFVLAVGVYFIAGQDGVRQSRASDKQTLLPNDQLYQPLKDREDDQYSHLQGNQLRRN
T1 sequence (P04234 22-171, chain 3 of 3): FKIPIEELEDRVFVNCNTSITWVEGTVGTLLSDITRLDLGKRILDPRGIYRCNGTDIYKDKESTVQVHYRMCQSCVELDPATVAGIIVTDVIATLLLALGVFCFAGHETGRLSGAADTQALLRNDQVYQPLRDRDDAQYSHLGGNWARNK

B1: BsAb-12 (bispecific antibody, human IgG1, lambda)
chain: EVQLVESGGGLVQPGGSLRLSCAASGRSFSSFQMGWFRQAPGKEREFVAASGWSGGPTYYWDSVIGRFTISTDNSKNTLYLQMNSLRAEDTAVYYCYEDRVLSGRPVRYWGQGTLVTVSSDKTHTCPPCPAPESTRGPSVFLFPPKPKDTLMISRTPEVTCVVVDVSHEDPEVKFNWYVDGVEVHNAKTKPREEQYNSTYRVVSVLTVLHQDWLNGKEYKCKVSNKALPAPIEKTISKAKGQPREPQVCTLPPSRDELTKNQVSLSCAVKGFYPSDIAVEWESNGQPENNYKTTPPVLDSDGSFFLVSKLTVDKSRWQQGNVFSCSVMHEALHNHYTQKSLSLSPGK
heavy: EVQLVESGGGLVQPGGSLRLSCAASGRSFSSFQMGWFRQAPGKEREFVAASGWSGGPTYYWDSVIGRFTISTDNSKNTLYLQMNSLRAEDTAVYYCYEDRVLSGRPVRYWGQGTLVTVSSGGGGSGGGGSGGGGSEVQLVESGGGLVQPGRSLRLSCAASGFTFNTYAMNWVRQAPGKGLEWVARIRSKYNNYATYYADSVKDRFTISRDDSKSIAYLQMNSLKTEDTAVYYCVRHGNFGNSYVSWFAYWGQGTLVTVSSASTKGPSVFPLAPSSKSTSGGTAALGCLVKDYFPEPVTVSWNSGALTSGVHTFPAVLQSSGLYSLSSVVTVPSSSLGTQTYICNVNHKPSNTKVDKKVEPKSCDKTHTCPPCPAPESTRGPSVFLFPPKPKDTLMISRTPEVTCVVVDVSHEDPEVKFNWYVDGVEVHNAKTKPREEQYNSTYRVVSVLTVLHQDWLNGKEYKCKVSNKALPAPIEKTISKAKGQPREPQVYTLPPCRDELTKNQVSLWCLVKGFYPSDIAVEWESNGQPENNYKTTPPVLDSDGSFFLYSKLTVDKSRWQQGNVFSCSVMHEALHNHYTQKSLSLSPGK
light: QTVVTQEPSLTVSPGGTVTLTCRSSTGAVTTSNYANWVQQKPGQAPRGLIGGTNKRAPGVPARFSGSLLGGKAALTLSGVQPEDEAEYFCALWYSNLWVFGGGTKLTVLGQPKAAPSVTLFPPSSEELQANKATLVCLISDFYPGAVTVAWKADSSPVKAGVETTTPSKQSNNKYAASSYLSLTPEQWKSHRSYSCQVTHEGSTVEKTVAPTECS
notes: also called BsAb-12 CD3×ROR1
**Q.** What does the source list for B1?
**A.** EC50 [1]: 1.39 nM; Kd (human ROR1 protein [2]): 0.354 nM; koff (human ROR1 protein [2]): 0.000207 s⁻¹; kon (human ROR1 protein [2]): 585000 M⁻¹ s⁻¹; Kd (human ROR1 protein [3]): 0.0267 nM; koff (human ROR1 protein [3]): 2.83e-05 s⁻¹; kon (human ROR1 protein [3]): 1.06e+06 M⁻¹ s⁻¹; EC50 [4]: 0.133 nM; EC50 [5]: 0.155 nM; EC50 [6]: 0.415 nM; Kd (human ROR1 protein [7]): 0.0349 nM; koff (human ROR1 protein [7]): 5.83e-05 s⁻¹; kon (human ROR1 protein [7]): 1.67e+06 M⁻¹ s⁻¹; EC50 [8]: 1.17 nM; EC50 [9]: 0.223 nM; EC50 [10]: 0.308 nM; Kd (human ROR1 protein [11]): 0.106 nM; koff (human ROR1 protein [11]): 8.37e-05 s⁻¹; kon (human ROR1 protein [11]): 788000 M⁻¹ s⁻¹; EC50 [12]: 0.547 nM; Kd (human ROR1 protein [13]): 0.359 nM; koff (human ROR1 protein [13]): 0.000169 s⁻¹; kon (human ROR1 protein [13]): 471000 M⁻¹ s⁻¹; EC50 of T cell activation based on reporter gene (luciferase), target cells A375 [14]: 0.0117 nM; EC50 of T cell activation based on reporter gene (luciferase), target cells Jeko-1 [14]: 0.00748 nM; EC50 of T cell activation based on reporter gene (luciferase), target cells MDA-MB-231 [14]: 0.00258 nM; Kd (human ROR1 protein [15]): 0.649 nM; koff (human ROR1 protein [15]): 0.000421 s⁻¹; kon (human ROR1 protein [15]): 649000 M⁻¹ s⁻¹
